Test results taken from the DeepSol protein solubility set.

test: soluble on expression in E. coli; label from the status in PepcDB or PDB records

Sequence | soluble on expression in E. coli
MILRTSEETISTVQEKQQNISPLVRERGPQRVAAHITGTRGRSNTLSSPNSKNEKALGRKINSWESSRSGHSFLSNLHLRNGELVIHEKGFYYIYSQTYFRFQEEIKENTKNDKQMVQYIYKYTSYPAPILLMKSARNSCWSKDAEYGLYSIYQGGIFELKENDRIFVSVTNEHLIDMDHEASFFGAFLVG | soluble
EGVAVMLFYSVGELFQDKAIDKAKRNISALLDVRPEKAVVVRSNEIVTVDPRSVLINEIIEIKAGERVPLDGVMLDEVAAFNTAALTGESVPRDISRGEEVLAGMIVTDKVIRMKVTKPFDKSALARILELVE | not soluble
MGSDKIHHHHHHMSESEYKIADGSGKFLQAVKDGRRMKDAQWSKGRILLSNKRIVLAGSEGKRNLPLSEVQGLSGRHDVNQTVAKVGNYVSIRMTNESVMLVSLGDNTETFESKLYGALLDQTELQVKHPAVEGGVVTDEQFERARIKVDESELSVAMSNGSFVSVELDDVGSAEAASLEVNGDTKPVLKVEHTVNRDTSVQTYFATDSHTASILESLLTKEAEKSQGSVELSETEKRVLMALYSGVSSFEIPDFLGMDVDEVESIFERLIEVDVLEEVRKRREVTMKTRGRNIASEAINEE | not soluble
MKQLAISFCIILPLACFWVLNAEDAKEAPEIREANSTVFRQKRQFGCPSNCYSSCSSSSQCQRYSVASVCVQGCCCPGNNNLDTACSGGPAVAACLGGLCGQGFFCSSNNYCCRCQSGNSTGPCVNQVCPTGFMCNTNNYCCPLGSGGVLGSCVNGVCPTGYTCGAGNLCYLSSGK | not soluble
MGSDKIHHHHHHMAVSLWQQCIGRLQDELSAQQFSMWIRPLQAEMEGDTLVLYAPNRFVLDWVRDKYINSINQFFTEQLGDNAPKLRFDIGSRPSAKPQAPAPAAVKAAAPQPKPGNSFVSQPEPAVSNHRSNINPTYQFDNFVEGKSNQLGKAAALQVAENPGGAYNPLFLYGGTGLGKTHLLHAVGNGIIKNNPNAKVVYMHSERFVQDMVKALQNNAIEEFKRYYRSVDALFIDDIQFFANKDRSQEEFFHTFNALLEGNHQIILTSDRYPKEIDGVEDRLKSRFGWGLTVAIEPPELETRVAILMRKAQESGINLPDEVAFFIAKRLRSNVRELEGALNRVIANANFTGRPITIDFVREALRDLLALQEKLVTIDNIQKTVAEYYKIKMADMLSKRRSRSVARPRQMAMALSKELTNQSLPEIGDAFGGRDHTTVLHACRKIAQLREESHDIKEDYANLIRTLSS | not soluble
GPGSMAKHYKAIFAMSYEAELYAHLQASQRFNAGADAAVVLHADSDEAMRRHLGISIDPINGTNCCVGGVWQAPMTLVGIALDGVPIAGVMNRIFDYPLTCTYGPAATEPQEKACVPGLAVVLNTPTPASPFVVFDGGLVPAPGQMEQQLECTCETPLAVCRSSTTKEVFLQRLLTQLEPCNAVYSRGAGYKQYHLLKKMLTGRHVAHEAITPADIFVCPPGTIEKWDCCVVHAFLYALGGEIFDQNGVPIRYPLVGTYGAATTSLSEIAALTDGLVAVTPYAMHEVARRLGWTLTLAP | not soluble
MDVIKIGDIVARKSYQCDLLFRVIDIKEKNGEWEAILYGEDVRLVADAPCSDLVVIDEQEQQERKKREIELLEQSYRLFRQDYQAIKQKVEYRATGGYRVEKDFFQIPGRVLHLDGDPLYLRKCMDLYERIGVPVHGIYCEESEMPEKVGYWIEQFRPDILVITGHDSYSKSKGKVHELKAYRHSRHFVQTVKEARKKVPHLDQLIIFAGACQSHFESLIRAGANFASSPARVNIHALDPVYIVSRLSFTPFTETVDVWDVLRNTLTGEKGLGGVETKGVLRTGMPFRLIEDREENRRS | not soluble
MGSDKIHHHHHHMARARTQYKCRSCGYISASYLGRCPNCGAWNQFEKESQEVRQTSTKATPSRLMASVGAKEAVKMSTVKAEKEERVLTKSSELNRVLGGGIVPGSLVLIGGDPGIGKSTLMLQIMSELAEKYKVLYVSGEESASQIKLRADRLGLGQSPMLLYPESNMEHIRDQIDDVKPDFVVIDSIQTMNEPSLDSMVGSASQVREVTAELMKIAKLDQVTVFVIGHVTKEGSIAGPKILEHMVDTVLYFEGDEHHAYRILHSVKNRFGAANEIGMFEMKTEGLAEVTNPSAVFLDERLPDSTGSAVVVSLEGTRPIL | not soluble
MESAIKKRRLEDSKLLGDLWQRLSHSRKKLMEIFHIILNQICLLPILESSCDNIHGFIEEFLQIFSSLLQEKRFLRDYDALFPVAEDISLLQQASSVLDETRTAYILQAVESAWEGVDRRKATDAKDPSVIEEPNGEPNGVTVTAEAVSQASSHPENSEEEECMGAAAAVGPAMCGVELDSLISQVKDLLPDLGEGFILACLEYYHYDPEQVINNILEERLAPTLSQLDRNLDREMNPDPTPLLTSRHNVFQNDEFDVFSRDSVDLSRVHKGKSTRKEENTRSLLNDKRAVAAQRQCYEQYSVVVEEVPLQPGESLPYHSVYYEDEYDDTYDGNQVGANDADSDDELISRRPFTIPQVLRTKVPREGQEEDDDDEEDDADEEAPKPDHFVQDPAVLREKAEARRMAFLAKKGYRHDSSTAVAGSPRGHGQSRETTQERRKKEANKATRANHNRRTMADRKRSKGMIPS | soluble
MDSPAWMFTKALSHRQKVTRLYKRCLREVDNWYGGNNLEVRFQKCIIRARFDANADEVDTRKSQILLADGCRQLWEKRHFKPFRFALDPGGSSYDRERESPDEIVDSDQWTLAEREQFPYYFNTREQRKKELLTHWAKIEKAWDEEIASIQTQLPAAAPTVSK | not soluble
MEALVVVHKVASEGGRRPKTTVSDESGSHSREKGKSFQVKDSPENNYATGKVDSLERSHFSSSYNQERRQSEEQRR | soluble
MTGVVTASKGLNVRKEANTSSQIIGILNSGESVEIIGEENGFYKITYKGQEAYASKNYINIFDGNSLEHHHHHH | not soluble
IEEVYEATLDAIQGALNCDRASILLFDEAGTMRFVAARGLSEHYQRAVDGHSPWITGANEPEPIFVENVDDAEFSRELKESIVGEGIAALGFFPLVTEGRLIGKFMTYYDRPHRFADSEIGMALTIARQLGFSIQRMRAEYARRQAEE | soluble
MNKETLQLFRTLTELQGASGFEHDVRRFMKQELSKYADEIVQDGLGSVFGLKKGDETGPRVLVAGHMDEVGFMVTQITKNGMLRFQTLGGWWSQVLLAQRVQVMTKNGPVIGVVGSIPPHLLSDAQRAKPMDIKNMLIDIGADSYEDAIEIGVKPGQQIVPICPFTPMANEKKIMAKAWDNRYGCGLAIELLKELKDETLPNTLYSGATVQEEVGLRGAQTAANMIQPDIFYALDASPANDASGDKTQFGQLGKGALLRIYDRTMVTHRGIREFILDTAETNNIPYQYFISQGGTDAGRVHTSNSGIPSAVIGVCARYVHTHASILHVDDYAAAKELITKLVRTTDKTTLETIKNNA | not soluble
MRVYRVKGEVLVAVCDSDIVGKTFREGDLKIEVKESFYGSEEVGEEEVKRALRNATIANITGKKAVELAARIGIIDRNRVLYIGGCPHAQMVVM | not soluble
MTPPEIDFFPDFIADPHRLFNHLKDSVLWDERMRARKTASFGAPYDYSQITYPAVPMPEALEQLCGPIEQLLGFRPNNCLLNCYPDGHSSMGFHSDANEQLVTGTGVVIVSLGHARAMVFRHKESGATFDYSLASGSLLHMSDELQKHWLHAIPKAPDAGERISLSFRQLKTGLEHHHHHH | soluble
GPGSMPAAPLPGEVAKFCSPLYMHKRILRAAAPKPPTVFTAKDNSKTAFHVVTQRPGFATTPYTVSRWYLKEKVHSSNRNRLEGLYECVLCASCTGSCPQYWWNRELFLGPAVLLQSYRWLIEPLDRDFDSRVKMFEHGPLVNFCHNIFNCSITCPKFLNPGMASKEIKRLSSPATLRVGPPLEDAKVASKY | not soluble
AMATAPRPLREQYLHFQPISTRWHDNDIYGHVNNVTYYAFFDTAVNTYLIERGGLDIQGGEVIGLVVSSSCDYFAPVAFPQRIEMGLRVARLGNSSVQYELALFLEGQREACAAGRFVHVFVERRSSRPVAIPQELRDALAALQSSAQ | soluble
LTSTLLRLSTDKIGAIIAIENQDSLESYVNIGYRVTSDFSPELLVTIFYNKQSPLHDGAVIVRDYQIVSVSSYFPMTRQLIDVSYGSRHRSALGLTEKCDAIVFIVSETTGKISVAVRGVIK | not soluble
